Experimental findings from publication PMC2808764 are described below.

The target in this assay is GST-βPIX (UniProt Q14155). Briefly: pull-down.

“His-tagged MYO18A-CB (His-MYO18A-CB) (domain or fragment)”: the fold amount pulled down, against GST-GIT1 turned out to be 2 fold.
